Measurements taken from PMC7897482, “Ecd promotes U5 snRNP maturation and Prp8 stability” (Nucleic Acids Research, 2021).

Target: T1, His::Ecd (Drosophila melanogaster, UniProt Q9W032 1-684)
T1 construct: Ecdysoneless (Ecd), Drosophila melanogaster; cDNA cloned into pET28b; also called His-tagged Ecd; source: E. coli BL21 Rosetta (DE3), purified (Ni Sepharose)
T1 sequence (looked up): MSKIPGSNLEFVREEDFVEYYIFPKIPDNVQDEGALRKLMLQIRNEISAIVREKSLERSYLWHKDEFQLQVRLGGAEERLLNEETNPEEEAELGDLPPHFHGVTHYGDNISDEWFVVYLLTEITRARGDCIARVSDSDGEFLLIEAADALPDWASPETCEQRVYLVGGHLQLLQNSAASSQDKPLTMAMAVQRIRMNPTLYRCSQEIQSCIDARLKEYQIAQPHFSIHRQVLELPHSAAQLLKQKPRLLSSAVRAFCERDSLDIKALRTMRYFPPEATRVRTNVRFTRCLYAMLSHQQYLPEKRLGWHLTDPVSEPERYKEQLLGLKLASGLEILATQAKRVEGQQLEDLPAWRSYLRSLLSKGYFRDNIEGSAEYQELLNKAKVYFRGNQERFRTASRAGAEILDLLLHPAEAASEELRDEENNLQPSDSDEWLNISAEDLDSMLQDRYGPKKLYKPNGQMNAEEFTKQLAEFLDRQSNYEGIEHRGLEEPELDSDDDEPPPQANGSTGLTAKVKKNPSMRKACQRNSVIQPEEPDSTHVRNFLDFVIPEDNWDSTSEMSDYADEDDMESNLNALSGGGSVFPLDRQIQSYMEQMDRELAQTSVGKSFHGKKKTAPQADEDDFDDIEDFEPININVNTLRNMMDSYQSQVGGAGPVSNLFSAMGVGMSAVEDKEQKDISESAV
Assay: pull-down; 10 μg of purified His::Ecd and His::SmD3::HA incubated alone or together overnight at 4°C with protein G Dynabeads coupled to rat anti-Ecd N-term antibody; western blot
Conditions: both partners purified

binding result: binds
B1: His::SmD3::HA (natural protein, Drosophila melanogaster, UniProt O44437 1-151, looked up)
chain: MSIGVPIKVLHEAEGHIITCETITGEVYRGKLIEAEDNMNCQMTQITVTYRDGRTANLENVYIRGSKIRFLILPDMLKNAPMFKKQTGKGLGGTAGRGKAAILRAQARGRGRGGPPGGGRGTGGPPGAPGGSGGRGAWQGGPTGGRGRGGL
notes: Sm ring protein SmD3, Drosophila melanogaster; cDNA cloned into Gateway pDEST17; also called His-tagged SmD3; source: E. coli BL21 Rosetta (DE3), purified (Ni Sepharose)
